The target in one assay is Rluc-BmArr. In words: intermolecular BRET. The following applies: read off a plot. Background: BRET reads energy transfer from a luciferase to a nearby fluorophore.
The next assay has as its target Rluc-BmOrco. The assay is described as follows: intermolecular BRET. The following applies: HEK293 cells; bombykal-induced; parent: est. 0.053; read off a plot.
The target of a further assay is T1, BmOR3–BmOrco (Bombyx mori, UniProt Q5FBE0).
T1 sequence (Q5FBE0 1-439): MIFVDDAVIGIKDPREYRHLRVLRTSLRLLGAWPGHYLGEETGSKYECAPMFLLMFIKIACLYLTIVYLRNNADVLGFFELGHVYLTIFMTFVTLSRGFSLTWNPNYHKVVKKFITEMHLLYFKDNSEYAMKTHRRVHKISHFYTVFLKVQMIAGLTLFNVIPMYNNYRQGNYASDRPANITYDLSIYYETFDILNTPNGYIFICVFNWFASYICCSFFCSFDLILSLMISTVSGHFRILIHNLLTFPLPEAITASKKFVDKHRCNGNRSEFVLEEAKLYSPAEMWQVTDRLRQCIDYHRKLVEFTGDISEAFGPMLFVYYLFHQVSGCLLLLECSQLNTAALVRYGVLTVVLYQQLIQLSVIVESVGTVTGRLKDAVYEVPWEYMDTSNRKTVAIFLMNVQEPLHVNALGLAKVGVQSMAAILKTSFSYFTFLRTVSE
T1 sequence (Q7YT34 1-472 partner): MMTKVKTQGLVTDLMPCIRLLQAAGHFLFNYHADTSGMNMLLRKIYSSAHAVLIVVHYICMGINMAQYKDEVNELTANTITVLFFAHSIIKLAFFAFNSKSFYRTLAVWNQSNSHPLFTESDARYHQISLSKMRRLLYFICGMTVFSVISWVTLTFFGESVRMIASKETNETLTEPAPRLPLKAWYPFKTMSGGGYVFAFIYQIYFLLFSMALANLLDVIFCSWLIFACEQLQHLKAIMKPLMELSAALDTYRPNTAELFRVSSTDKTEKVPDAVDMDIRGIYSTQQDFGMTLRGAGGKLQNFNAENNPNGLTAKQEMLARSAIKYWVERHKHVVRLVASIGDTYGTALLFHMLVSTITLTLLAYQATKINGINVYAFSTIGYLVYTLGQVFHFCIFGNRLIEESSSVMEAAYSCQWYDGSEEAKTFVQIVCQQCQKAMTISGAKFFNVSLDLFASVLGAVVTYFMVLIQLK
In words: BmOR3–BmOrco intermolecular BRET assay. Type of assay: cell-based. The following applies: HEK293 cells; pretreatment 100 ng/ml. The procedure:
HEK293 cells were cotransfected with the N-terminal Rluc-tagged WT BmOR3 together with N-terminal YFP-fused BmOrco plasmids or their mutants. Twenty-four hours after transfection, cells were distributed into a 96-well microplate. After another 24 h, the cells were stimulated with different concentrations of bombykal for 5 min. BRET between RLuc and YFP was measured using a Mithras LB 940 multimode reader after the addition of the RLuc substrate coelenterazine h (5 μM). The BRET signal was calculated as the ratio of emission of YFP (530 nm) to RLuc (485 nm). For the saturation BRET between Rluc-BmOrco and YFP-BmOR3, HEK293 cells were transfected with a fixed amount of Rluc-BmOrco and increasing amounts of YFP-BmOR3. The BRET signal between RLuc and YFP was directly measured after the addition of the substrate coelenterazine h (5 μM).

Assay [1] concerns the target T2, BmOR3 (Bombyx mori, UniProt Q5FBE0). The assay is described as follows: Arrestin recruitment BRET assay. Particulars: HEK293 cells; pretreatment. It counts as cell-based. The procedure:
HEK293 cells were transiently cotransfected with the N-terminal YFP-tagged BmOR3 together with N-terminal Rluc-fused β-arrestin-1, β-arrestin-2, or BmArr plasmids. Twenty-four hours after transfection, cells were distributed into a 96-well microplate and incubated for additional 24 h. The cells were stimulated with varying concentrations of bombykal for 10 min, and the BRET signal between YFP (530 nm) and Rluc (485 nm) was measured after the addition of the Rluc substrate coelenterazine h (5 μM) using a Mithras LB 940 multimode reader (Berthold Technologies). The BRET signal was calculated as the ratio of emission of YFP to Rluc.
Background: Activated receptors often draw arrestin, which recruitment assays turn into a signal.

The test system of the next assay is BmOR3 and BmOrco. The assay is described as follows: CalfluxVTN Ca2+ assay (BRET-based calcium sensor). It counts as cell-based, Bombyx mori. Particulars: HEK293 cells; pretreatment 100 ng/ml. How it is done:
HEK293 cells were cotransfected with plasmids encoding WT BmOR3 and BmOrco or their mutants, or AT1R together with CalfluxVTN probe. 24 h after transfection, cells were redistributed into 96-well flat-bottomed microplates. After another 24 h, cells were incubated with conventional buffer with Ca^2+ (135 mM NaCl, 5 mM KCl, 1 mM CaCl2, 5 mM D-glucose, 10 mM Hepes; pH = 7.4) or with Ca^2+-free buffer (135 mM NaCl, 5 mM KCl, 1 mM EGTA, 5 mM D-glucose, 10 mM Hepes; pH = 7.4), and stimulated with different concentrations of Bombykal (or AngII). The BRET ratio between Venus and Nluc was measured before (baseline) and after the addition of the Nluc substrate furimazine (5 μM) using a Mithras LB 940 multimode reader (Berthold Technologies). The BRET signal was calculated as ratio of emission of Venus (530 nm) to Nluc (460 nm). The baseline value was subtracted from the bombykal-stimulated BRET signal to obtain the ΔBRET value.

In assay [2] the target is T2, BmOR3. The assay is described as follows: Arrestin-kinase BRET assay. Type of assay: cell-based. The following applies: HEK293 cells transfected with BmOR3; pretreatment. How it is done: Twenty-four hours after transfection, cells were distributed into a 96-well microplate. After another 24 h, the cells were stimulated with 1 μM bombykal (for BmOR3-transfected cells) or 1 μM AngII for 10 min (for AT1R-transfected cells). BRET between RLuc and YFP was measured using a Mithras LB 940 multimode reader after the addition of the RLuc substrate coelenterazine h (5 μM). The BRET signal was calculated as the ratio of emission of YFP (530 nm) to RLuc (485 nm).

The next assay addresses T3, YFP-BmOR3 (Bombyx mori, UniProt Q5FBE0 1-439).
T3 construct: BmOR3, pheromone (bombykal) receptor of Bombyx mori; also called N-terminal YFP-tagged BmOR3; YFP-WT-BmOR3; source: HEK293, transfected, in living cells; not shown: YFP, N-terminal, kept
T3 sequence (looked up): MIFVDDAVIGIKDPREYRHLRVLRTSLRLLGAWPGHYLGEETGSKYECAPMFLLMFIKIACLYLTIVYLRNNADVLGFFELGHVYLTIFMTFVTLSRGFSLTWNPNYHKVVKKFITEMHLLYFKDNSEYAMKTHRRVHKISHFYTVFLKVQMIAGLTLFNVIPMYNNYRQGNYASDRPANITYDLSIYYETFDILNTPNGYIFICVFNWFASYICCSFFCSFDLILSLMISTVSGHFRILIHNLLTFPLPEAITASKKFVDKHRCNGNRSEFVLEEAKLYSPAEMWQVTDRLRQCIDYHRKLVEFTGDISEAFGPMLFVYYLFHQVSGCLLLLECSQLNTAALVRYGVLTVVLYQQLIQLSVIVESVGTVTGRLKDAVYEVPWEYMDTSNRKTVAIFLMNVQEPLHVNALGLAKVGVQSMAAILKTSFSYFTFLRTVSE
The assay is described as follows: intermolecular BRET. Particulars: HEK293 cells; bombykal-induced; parent: est. 0.027; read off a plot.

[3] abbreviates: bombykal-stimulated, parent: est. 0.012.
Setting [4] is: HEK293 cells, bombykal, parent: est. 0.612.
Where [5] appears, read: HEK293 cells, vehicle, parent: est. 0.592.

Turning to YFP-BmOR3 (from UniProt Q5FBE0) S26A, the response with Rluc-BmArr (setting [3]) was 0.008 ΔBRET.
On to “YFP-BmOR3 (from UniProt Q5FBE0) V394A; L398A”, for which, in the assay with Rluc-BmOrco, the response was 0.041 ΔBRET.
As to YFP-BmOR3 (from UniProt Q5FBE0) T42A, the response in the assay with Rluc-BmArr (setting [3]) is 0.0086 ΔBRET.
Regarding pertussis toxin [PTX], the “effect of pretreatment on bombykal-induced BmOR3–BmOrco complex formation” value on BmOR3–BmOrco was “no significant effects”. The “effect of pretreatment on bombykal-induced β-arrestin recruitment to BmOR3” value on BmOR3 [1] was “not affected”. The “effect of pretreatment on bombykal-induced complex-regulated calcium influx” value in the assay on BmOR3 and BmOrco was “no significant effects”. Further, the “effect of pretreatment on bombykal-induced association of β-arrestin with ERK, SRC, and AKT” value at BmOR3 [2] was “not significantly affected”.
With YFP-BmOR3 (from UniProt Q5FBE0) W286A, the response in the assay with Rluc-BmArr (setting [4]) was 0.605 BRET Ratio; with Rluc-BmArr (setting [5]), 0.593 BRET Ratio.
Rluc-BmOrco V428A; V431A: the response in the assay with YFP-BmOR3 is 0.031 ΔBRET.
Consider “YFP-BmOR3 (from UniProt Q5FBE0) T25A; S26A; T42A”, for which the response in the assay with Rluc-BmArr (setting [3]) is 0.0024 ΔBRET.
Regarding Rluc-BmOrco L451A; L458A, in the assay with YFP-BmOR3, the response was 0.029 ΔBRET.
On the same count and under the same terms, to Rluc-BmOrco F427A; I430A belongs 0.031 ΔBRET.
In the case of YFP-BmOR3 (from UniProt Q5FBE0) W383A, the response was found to be 0.603 BRET Ratio with Rluc-BmArr (setting [4]) and 0.59 BRET Ratio with Rluc-BmArr (setting [5]).
Take “YFP-BmOR3 (from UniProt Q5FBE0) I396A; M399A”: the response with Rluc-BmOrco is 0.042 ΔBRET.
“YFP-BmOR3 (from UniProt Q5FBE0) L410A; L412A”: the response with Rluc-BmOrco was 0.04 ΔBRET.
Turning to YFP-BmOR3 (from UniProt Q5FBE0) W209A, the response with Rluc-BmArr (setting [4]) was determined as 0.604 BRET Ratio; with Rluc-BmArr (setting [5]) it was 0.592 BRET Ratio.
